# Where no end group is shown, it is not given here.
# Key:
# [1] = target: T1, Anti-CD28 Fab (SEQ ID NOs: 696, 697); assay: phage binding ELISA on captured anti-CD28 Fab; wells pre-incubated with CD28 antigen as competitor
# T1 construct: In the phage ELISA the Fab was biotinylated and captured on neutravidin coated plates
# [2] = target: T1, Anti-CD28 Fab (SEQ ID NOs: 696, 697); assay: phage binding ELISA; biotinylated anti-CD28 Fab on neutravidin plate, clonal phage supernatant, anti-M13 HRP
# [3] = target: T2, Anti-PSMA Fab; assay: clonal phage ELISA; biotinylated anti-PSMA Fab on neutravidin plate; anti-M13 HRP detection; no PSMA added
# T2 construct: Biotinylated and captured on neutravidin plates in the phage ELISA; also called 006 PSMA Fab
# [4] = target: T2, Anti-PSMA Fab; assay: clonal phage ELISA; biotinylated anti-PSMA Fab on neutravidin plate; anti-M13 HRP detection; competitor: PSMA antigen pre-added
# [5] = target: T3, PSMA Fab (006 PSMA Fab); assay: phage ELISA; PSMA Fab on plate pre-incubated with PSMA antigen as competitor, anti-M13 HRP detection;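 also: crude clonal phage supernatants added to Fab-coated wells still holding PSMA antigen in blocking buffer, with bound phage as read-out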
# T3 construct: also called Anti-PSMA Fab; anti-PSMA Fab
# [6] = target: T3, PSMA Fab (006 PSMA Fab); assay: phage ELISA; biotinylated PSMA Fab on neutravidin plate, clonal phage supernatant, anti-M13 HRP detection;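 also: wells preincubated with PSMA antigen in blocking buffer or with blocking buffer only before clonal phage were added for a short incubation, then bound phage detected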
# [7] = target: T4, PSMA Fab; assay: BLI (Octet); PSMA Fab on sensor-loaded biotinylated peptide, 1:1 model
# T4 construct: also called 006 PSMA Fab; anti-PSMA Fab
# [8] = target: Ab-15; assay: BLI (Octet): biotinylated peptide on sensor, Ab-15 titrated, 1:1 model
# [9] = target: Ab-15; assay: binding ELISA: biotinylated peptide on neutravidin plate, Ab-15 titrated
# [10] = target: Ab-15; assay: BLI (Octet): sensor loaded with 200 nM biotinylated peptide, 100 nM Ab-15;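 also: binding association and dissociation tracked in real time, fitted to a 1:1 binding model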
# [11] = target: Ab-15; assay: competition ELISA: peptide titrated against 1 nM Ab-15; competitor plate-bound CD28
binder,measurement,setting,value
"TCSAGAHYPWPICL (Clonal phage of the Peptide-92 library, tested as crude supernatant; not shown: fused to the pIII filament of the bacteriophage) [Phage-1347]",Anti-CD28 Fab signal in the presence of CD28,[1],0.07
same,"Anti-CD28 Fab (SEQ ID NOs: 696, 697) signal",[2],1.78
"LCSAGAMWPWPTCL (Clonal phage of the Peptide-92 library, tested as crude supernatant; not shown: fused to the pIII filament of the bacteriophage) [Phage-1355]",Anti-CD28 Fab signal in the presence of CD28,[1],0.08
same,"Anti-CD28 Fab (SEQ ID NOs: 696, 697) signal",[2],2.39
IVKFCIPQWMCDGF [Phage-3623],"Phage binding ELISA signal, Anti-PSMA Fab",[3],1.56
same,"Phage binding ELISA signal, Anti-PSMA Fab with PSMA antigen",[4],0.147
ESQYCVPRWMCDGF (tested as crude clonal phage supernatant) [Phage-3898],"Phage binding ELISA signal, Anti-PSMA Fab in presence of PSMA antigen",[5],0.0633
same,"Phage binding ELISA signal, Anti-PSMA Fab",[6],1.08
"MCSAGAMYKWPLCL (Clonal phage of the Peptide-92 library, tested as crude supernatant; not shown: fused to the pIII filament of the bacteriophage) [Phage-1359]",Anti-CD28 Fab signal in the presence of CD28,[1],0.05
same,"Anti-CD28 Fab (SEQ ID NOs: 696, 697) signal",[2],2.32
"TCAAGAHYPWPACL (Clonal phage of the Peptide-92 library, tested as crude supernatant; not shown: fused to the pIII filament of the bacteriophage) [Phage-1351]",Anti-CD28 Fab signal in the presence of CD28,[1],0.07
same,"Anti-CD28 Fab (SEQ ID NOs: 696, 697) signal",[2],1.92
"TCSAGATWAWPLCF (Clonal phage of the Peptide-92 library, tested as crude supernatant; not shown: fused to the pIII filament of the bacteriophage) [Phage-1349]",Anti-CD28 Fab signal in the presence of CD28,[1],0.09
same,"Anti-CD28 Fab (SEQ ID NOs: 696, 697) signal",[2],2.31
FTNYCVPSWMCTGF (From the Peptide-180 optimisation phage library) [Peptide-267],Off rate t1/2,[7],1.9 min
"TCSAGATYEWPRCL (Clonal phage of the Peptide-92 library, tested as crude supernatant; not shown: fused to the pIII filament of the bacteriophage) [Phage-1346]",Anti-CD28 Fab signal in the presence of CD28,[1],0.06
same,"Anti-CD28 Fab (SEQ ID NOs: 696, 697) signal",[2],1.84
GYHLCIPEWMCSGL (tested as crude clonal phage supernatant) [Phage-3904],"Phage binding ELISA signal, Anti-PSMA Fab in presence of PSMA antigen",[5],0.0923
same,"Phage binding ELISA signal, Anti-PSMA Fab",[6],1.06
VIPLCRPSWMCAAY (tested as crude clonal phage supernatant) [Phage-3910],"Phage binding ELISA signal, Anti-PSMA Fab in presence of PSMA antigen",[5],0.116
same,"Phage binding ELISA signal, Anti-PSMA Fab",[6],1.04
FERVCVPAWMCAGF (tested as crude clonal phage supernatant) [Phage-3899],"Phage binding ELISA signal, Anti-PSMA Fab in presence of PSMA antigen",[5],0.0668
same,"Phage binding ELISA signal, Anti-PSMA Fab",[6],1.07
TERMCSPSWMCDGF (tested as crude clonal phage supernatant) [Phage-3908],"Phage binding ELISA signal, Anti-PSMA Fab in presence of PSMA antigen",[5],0.0693
same,"Phage binding ELISA signal, Anti-PSMA Fab",[6],1.05
DDRVCRPDWMCNGF [Phage-3624],"Phage binding ELISA signal, Anti-PSMA Fab",[3],1.56
same,"Phage binding ELISA signal, Anti-PSMA Fab with PSMA antigen",[4],0.0665
ADVLCRPHWMCAGF (tested as crude clonal phage supernatant) [Phage-3905],"Phage binding ELISA signal, Anti-PSMA Fab in presence of PSMA antigen",[5],0.0581
same,"Phage binding ELISA signal, Anti-PSMA Fab",[6],1.06
"LCKPGVPYKWPTCL (Clonal phage of the Peptide-92 library, tested as crude supernatant; not shown: fused to the pIII filament of the bacteriophage) [Phage-1353]",Anti-CD28 Fab signal in the presence of CD28,[1],0.07
"RDWCPRDLWVHCFA (cysteine pairing not given here; also: biotinylated, site not given here, CD28 peptide mask) [Peptide-53]",Kd,[8],20.3 nM
same,t1/2,[8],6.2 min
same,EC50,[9],14.6 nM
same,Octet signal,[10],1.22
same,t1/2,[10],4.9 min
same,IC50,[11],170 nM
"QDWCPRDLWVHCFA (cysteine pairing not given here; also: biotinylated, site not given here, CD28 peptide mask) [Peptide-56]",Kd,[8],24.6 nM
same,t1/2,[8],4.2 min
same,EC50,[9],25.7 nM
same,Octet signal,[10],1.12
same,t1/2,[10],3.6 min
same,IC50,[11],330 nM
"EDWCPRDLWVHCFA (cysteine pairing not given here; also: biotinylated, site not given here, CD28 peptide mask) [Peptide-57]",Kd,[8],23.2 nM
same,t1/2,[8],3.1 min
same,EC50,[9],32.8 nM
same,Octet signal,[10],1.02
same,t1/2,[10],3 min
same,IC50,[11],300 nM
"KDWCPRDLWVHCFA (cysteine pairing not given here; also: biotinylated, site not given here, CD28 peptide mask) [Peptide-62]",Kd,[8],26.1 nM
same,t1/2,[8],4.5 min
same,EC50,[9],19.7 nM
same,Octet signal,[10],1.13
same,t1/2,[10],4 min
same,IC50,[11],190 nM
"TDWCPRDLWVHCFA (cysteine pairing not given here; also: biotinylated, site not given here, CD28 peptide mask) [Peptide-66]",Kd,[8],25.5 nM
same,t1/2,[8],4.7 min
same,EC50,[9],24 nM
same,Octet signal,[10],1.34
same,t1/2,[10],4.2 min
same,IC50,[11],590 nM
"TCAAGAMWAWPVCL (Clonal phage of the Peptide-92 library, tested as crude supernatant; not shown: fused to the pIII filament of the bacteriophage) [Phage-1358]",Anti-CD28 Fab signal in the presence of CD28,[1],0.09
same,"Anti-CD28 Fab (SEQ ID NOs: 696, 697) signal",[2],2.32
VVIKCKPEWMCSGF (From the Peptide-180 optimisation phage library) [Peptide-277],Off rate t1/2,[7],1.9 min
"LCSAGAMYSWPTCL (Clonal phage of the Peptide-92 library, tested as crude supernatant; not shown: fused to the pIII filament of the bacteriophage) [Phage-1356]",Anti-CD28 Fab signal in the presence of CD28,[1],0.12
same,"Anti-CD28 Fab (SEQ ID NOs: 696, 697) signal",[2],2.39
"SCSAGAHYPWPQCF (Clonal phage of the Peptide-92 library, tested as crude supernatant; not shown: fused to the pIII filament of the bacteriophage) [Phage-1345]",Anti-CD28 Fab signal in the presence of CD28,[1],0.06
same,"Anti-CD28 Fab (SEQ ID NOs: 696, 697) signal",[2],1.16
"SCSAGAAYYWPWCL (Clonal phage of the Peptide-92 library, tested as crude supernatant; not shown: fused to the pIII filament of the bacteriophage) [Phage-1348]",Anti-CD28 Fab signal in the presence of CD28,[1],0.09
same,"Anti-CD28 Fab (SEQ ID NOs: 696, 697) signal",[2],1.9
VMAVCQPEWMCSGM (tested as crude clonal phage supernatant) [Phage-3909],"Phage binding ELISA signal, Anti-PSMA Fab in presence of PSMA antigen",[5],0.0731
same,"Phage binding ELISA signal, Anti-PSMA Fab",[6],1.05
LGPMCRPNWMCVGL (tested as crude clonal phage supernatant) [Phage-3903],"Phage binding ELISA signal, Anti-PSMA Fab in presence of PSMA antigen",[5],0.0797
same,"Phage binding ELISA signal, Anti-PSMA Fab",[6],1.06
GHMYCSPLWMCEGF (tested as crude clonal phage supernatant) [Phage-3902],"Phage binding ELISA signal, Anti-PSMA Fab in presence of PSMA antigen",[5],0.131
same,"Phage binding ELISA signal, Anti-PSMA Fab",[6],1.06
DLMMCVPAWMCEGF [Phage-3629],"Phage binding ELISA signal, Anti-PSMA Fab",[3],1.55
same,"Phage binding ELISA signal, Anti-PSMA Fab with PSMA antigen",[4],0.0929
LAVKCEPAWMCTGF [Phage-3627],"Phage binding ELISA signal, Anti-PSMA Fab",[3],1.55
same,"Phage binding ELISA signal, Anti-PSMA Fab with PSMA antigen",[4],0.0802
SLERCEPPWMCFGF (tested as crude clonal phage supernatant) [Phage-3907],"Phage binding ELISA signal, Anti-PSMA Fab in presence of PSMA antigen",[5],0.0697
same,"Phage binding ELISA signal, Anti-PSMA Fab",[6],1.06
YVMMCVPQWMCTAK (tested as crude clonal phage supernatant) [Phage-3901],"Phage binding ELISA signal, Anti-PSMA Fab in presence of PSMA antigen",[5],0.069
same,"Phage binding ELISA signal, Anti-PSMA Fab",[6],1.06
"TCAAGATYLWPTCL (Clonal phage of the Peptide-92 library, tested as crude supernatant; not shown: fused to the pIII filament of the bacteriophage) [Phage-1350]",Anti-CD28 Fab signal in the presence of CD28,[1],0.06
same,"Anti-CD28 Fab (SEQ ID NOs: 696, 697) signal",[2],1.68
AGYACVPSWMCEGF [Phage-3626],"Phage binding ELISA signal, Anti-PSMA Fab",[3],1.55
same,"Phage binding ELISA signal, Anti-PSMA Fab with PSMA antigen",[4],0.105
SDALCRPHWMCAGF (tested as crude clonal phage supernatant) [Phage-3906],"Phage binding ELISA signal, Anti-PSMA Fab in presence of PSMA antigen",[5],0.061
same,"Phage binding ELISA signal, Anti-PSMA Fab",[6],1.06
ELHLCIPSWMCTGL [Phage-3630],"Phage binding ELISA signal, Anti-PSMA Fab",[3],1.54
same,"Phage binding ELISA signal, Anti-PSMA Fab with PSMA antigen",[4],0.104
GNDYCVPAWMCAGF (tested as crude clonal phage supernatant) [Phage-3900],"Phage binding ELISA signal, Anti-PSMA Fab in presence of PSMA antigen",[5],0.0974
same,"Phage binding ELISA signal, Anti-PSMA Fab",[6],1.06
VHPMCTPLWMCVGF [Phage-3628],"Phage binding ELISA signal, Anti-PSMA Fab",[3],1.55
same,"Phage binding ELISA signal, Anti-PSMA Fab with PSMA antigen",[4],0.0993
DWVMCKPEWMCAGF [Phage-3625],"Phage binding ELISA signal, Anti-PSMA Fab",[3],1.55
same,"Phage binding ELISA signal, Anti-PSMA Fab with PSMA antigen",[4],0.0618

# From patent US20260242478A1 (published 2026)
